{"source": "patent US5789163", "about": "“Enzyme linked oligonucleotide assays (ELONAS)” (NeXstar Pharmaceuticals, Inc.)", "binders": {"B1": {"name": "H-42 (ssRNA)", "RNA": "GGGAGGACGAUGCGGACAAGGGCCUGAGUGUGGAGGGCACGUGGAGGGGACUGGCCAGACGACUCGCCCGA", "modifications": "2'-NH2 on all C and U"}, "B2": {"name": "T-15 (ssRNA)", "RNA": "GGGAGGACGAUGCGGAUGUUGGCAGCAGGGUCCGACGGCGUAACCUUGCCAGCUGCAGACGACUCGCCCGA", "modifications": "2'-NH2 on all C and U"}}, "key": {"[1]": {"target": "hCG (human chorionic gonadotropin) (Homo sapiens, UniProt P01215;P0DN86 P01215:25-116,P0DN86:21-165)", "sequence (P01215 25-116, chain 1 of 2, other chains not shown)": "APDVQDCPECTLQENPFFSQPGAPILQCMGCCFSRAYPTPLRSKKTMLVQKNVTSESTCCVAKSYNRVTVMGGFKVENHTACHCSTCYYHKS", "experiment": "ELONA; RNA as capture molecule in TEM buffer; detection down to 200 mIU (340 pM)", "conditions": "tags: Vitro Diagnostics, 14,000 IU/mg, Mr 42,000; label: 5'-biotin (GDP-beta-S, iodoacetyl-LC-biotin)"}, "[2]": {"target": "VEGF (vascular endothelial growth factor) (Homo sapiens, UniProt P15692-4 P15692-4:27-191)", "sequence (P15692 other isoform, or with tags, fused parts or gaps)": "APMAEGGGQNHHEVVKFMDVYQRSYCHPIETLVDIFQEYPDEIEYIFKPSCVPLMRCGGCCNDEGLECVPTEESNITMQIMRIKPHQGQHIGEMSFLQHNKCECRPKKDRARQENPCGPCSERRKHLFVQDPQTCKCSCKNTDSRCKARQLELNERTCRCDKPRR", "experiment": "ELONA; 95% CI 0.19-0.33 nM, N=6; VEGF titration in sandwich with capture antibody, ligand 400 nM as detector, room temperature; 0.236 nM in Superblock/TBS-Tween variant", "conditions": "tags: R&D Systems recombinant human VEGF; chain copies: 2; label: 3'-biotin"}, "[3]": {"target": "hTSH (human thyroid stimulating hormone) (Homo sapiens, UniProt P01215;P01222 P01215:25-116,P01222:21-132)", "sequence (P01215 25-116, chain 1 of 2)": "as the sequence (P01215 25-116, chain 1 of 2, other chains not shown) above", "sequence (P01222 21-132, chain 2 of 2)": "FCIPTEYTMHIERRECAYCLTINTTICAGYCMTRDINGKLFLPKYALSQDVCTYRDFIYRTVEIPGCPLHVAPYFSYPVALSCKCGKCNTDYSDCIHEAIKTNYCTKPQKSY", "experiment": "ELONA; RNA as capture molecule in TEM buffer; signals analogous to commercial ELISA", "conditions": "tags: Becton Dickinson, 9 IU/mg, Mr 27,700; label: 5'-biotin (GDP-beta-S, iodoacetyl-LC-biotin)"}}, "data": [{"binder": "B1", "values": [{"measurement": "binding result", "setting": "[1]", "result": "binds"}]}, {"binder": "ACCCUGAUGGUAGACGCCGGG (ssRNA, 2'-NH2 pyrimidines)", "note": "[VEGF-NeXamer]", "values": [{"measurement": "EC50", "setting": "[2]", "result": 0.25, "unit": "nM"}]}, {"binder": "B2", "values": [{"measurement": "binding result", "setting": "[3]", "result": "binds"}]}]}
